The text below walks through data of the DeepSol protein solubility set.

The series in a line: soluble on expression in E. coli; label from the status in PepcDB or PDB records.
As for “MFNVSALAAATPSIASVSSVASPSEQHGLSTSVGVGVNDTTSRTGDGGAASSASSASAAPQQQSQSALHNKLEAKWDTLLPTDTNLQCSTWPDSIPLLAGYSATPTFSFDPCTYGSYDPSAYFASNGIAGSMYTLPDQFPRSENDMLDNSNTSNGNKSDKDGIKLEDEDEILEDEENDEEDDGTGKRKKRKRRVLFTKAQTYELERRFRSQKYLSAPEREALAMQIRLTPTQVKIWFQNHRYKTKKSHTDKPINAALLTTMPNAFSSQSTAASFPTRAMPIPMLVRDSSARSSDISSTSPYTVAFGSANSGYLPTPSAYLPATSGYFSNGPSAASSYMTNTQWWPS”, the “soluble on expression in E. coli” value was “not soluble”. For “MVKKITVYTAFGQFLKMVELQMEQEMEKMNEIETDKLPIDHQLSDYQNNIESGNDRQVQSCPVDVSIPKEVMKCASCPLLCFNCSVQMPVSPVPTTIESRKINETTQLMMEFWKIVASKSEEEKLPSLFENVEGLFSVPFSTFGTWDDDTLSGVTSLNFEKSDEQLSEQDDDKTTVWSSNFPSAHVLTVYENSEQKTDEMADDEMSDTTSSFLSTLSTTMSAQVPALHLLQRVQLQRSVIKKQKKIIDSFSELQNLNKKLADLRKKHRD”, the “soluble on expression in E. coli” value is “not soluble”. Take “MTLLLPRRRFSALLDHIKNWTSSIRADKQYRSFSTGDLVSPSQPSAFEPDFMEMEFGATPTTSSLPSHFDDNDLVPVEFKKSGVKLIPQGTRKAEKAKKFGSFEELSKVKLEDIHRAQSWFFVDVDPKSAERILMSNGFSDSSFLISFFRQKYVLSIWRKTKVEHLVIRNYQKKNGTMAFQLDIDRSFKNLVELTEYYTKNKSYVLCTKLSKGVSRPRRNPDTRTRA”: the “soluble on expression in E. coli” value was “not soluble”.

Regarding “MAPPTPHLAVRGSDGTLLLHGPPNCQESSAFQRDDRQGRYMTFSNDGTLFAWCNGSQVTVLKVPSGDLVKSFDLPKTTALEFSPLNKVLATWQQYTKTQDNPQGEANLQLWDLQTGACMKAFYQKKMTGWCPSWADDESISVRNVNNELHFFENNNFETIANKLHLQKVSEFALSPGSQPSKVAVYVPGSKGAPSFVRLYQYPNFGGPTCALANKSFFKADKVNMLWNKKATAVLVTASTEVDKTGASYYGEQTLHYVATNGESAVVQLPKNGPIYDVSWSPNSTEFCVVYGFMPAKATVFNNKCESVFDFGTGPRNAAFYSPQGHILVLAGFGNLRGQMEVWDVKKYKQVSKPQAEDTTHFSWCPDGEHIVTATCSPRLRASNGYKIWHYTGTVLYKHETPSGKELWEVLWQPFPAGVFPERAVKYQALPSELGSTEAKPAQAYRPPALRNKPQTASSKLHEEEPPQNMKPGAAGEKQPSKAALKNQKRREAKKAAKQENKPDEAPPPAADPAPVSHVTSSCGDPETDKKIKNLKKKLKAIDELKEQQAAGKVMQKNQLEKMQKEAQLLKELEDLELGL”, the “soluble on expression in E. coli” value was “soluble”. With “MGGSALNQGVLEGDDAPGQSLYERLSQRMLDISGDRGVLKDVIREGAGDLVAPDASVLVKYYGYLEHLDRPFDSNYFRKTPRLMKLGEDITLWGMELGLLSMQRGELARCFVLGKLLDSQGPSLHLYLRAS”, the “soluble on expression in E. coli” value is reported as “not soluble”.

For the sequence “MSAAPLVRAVRWYQRVLSPRKPAPTCRFSPTCSEYAAQALDRHGALKGGWLALWRVLRCNPLVPGGFDPV”, the “soluble on expression in E. coli” value is given as “soluble”. To “MTTKFVVGYDGSAASRRALDFAMERAKAGGASIIVAHVLEWSPYSFLTPTEIEERHKRRAEEMARAETAILAPLKAELAGSGVEIETAIRYGQVADTLCDIATKSGAAQIFIARQGESGLAARVFGSVAGTLAQYAPVPCTIVP” belongs “not soluble”; to “MAGDPMRRTLYRLMIELTNGRFTSYILRKFAQSRLSSIIIPSYAKVFQINQDEMEKGLKEYRTLHELFTRKLKEGKRSIDTDASSIVSPVDGVFADHGPIEDTKTFDIKGKRYSIVDMLGNEERATRYAGGTYMVIYLSPSHYHRIHSPLSGSVTERFVLGRKSYPVNAAGMEYGKEPLSKNYRSVTEVSSDGEHMALVKVGAMFVNSIELLHERDTVQKGEEMAYFTFGSTVVLLFEKDMIEVVQELKSGQELRLGEKIATRLAHKLEHHHHHH”, “not soluble”; to “MSLDKQNHKIFEILADKVSAKDNVITASGNAILLNYDVYILADKVRYDTKTKEALLEGNIKVYRGEGLLVKTDYVKLSLNEKYEIIFPFYVQDSVSGIWVSADIASGKDQKYKVKNMSTSGCSIDNPIWHVNATSGSFNMQKSHLSMWNPKIYVGDIPVLYLPYIFMSTSNKRTTGFLYPEFGTSNLDGFIYLQPFYLAPKNSWDMTFTPQIRYKRGFGLNFEARYINSKNDRFLFNARYFRNYTQYVKRYDLRNQNIYGFEFLSSSRDTLQKYFHLKSNIDNGHYIDFLYMNDLDYVRFEKVNKRITDATHMSRANYYLQTENNYYGLNIKYFLNLNKINNNRTFQSVPNLQYHKYLNSLYFRNLLYSVDYQFRNTAREIGYGYVQNALNVPVGLQFSLFKKYLSLGLWNDLQLSNVALMQSKNSFVPTIPNESREFGNFVSSNFSMYVNTDLAREYNKLFHTIQLEAIFNIPYYTFKNGLFSQNMYALSAQALNSYTSPLLRDYDYQGRLYDSVWNPSSILPSNASNKTVDLTLTQYLYGLGGQELLYFKISQLINLDDKVSPFRMPLESKIGFSPLTGLNIFGNVFYSFYQNRLEEISVNANYQRKFLSFNLSYFLKNNFSSGINSIVENEGHHHHHH”, “not soluble”. On to “MGSDKIHHHHHHMIQLAFTKTEISADTAVKQGAALRQMNELLERLSTAPKYHTLTKKDRAQLSREGYAADLVDNLVLITQRKEESTVTDNDNLVVGFTYAAFDPALYANETLKNHFKQMSQGCCCFCESFLMPTASGHISHYRPVQQLDLEGVEHTKPNSECSPYFSEAYQQENLVYVCSGCDVTHKAGRFPIAGERFPHVALSTENALLVNPYQENPRDFIRFNLCNGHAYPFDQACAFYADTQKLTEQDVEALLWKTPSAIPNQVDEAGALLTDSGVEQAFTFWLKSEASQRQSSRGAVTIVTLGLNRSDLVLARLMTLKQYHNDFITHKAALAQPLMPEDIATIAYRSLALDAFATWQSIANGTGSNLANNEGTNKGTNKGTNIGTNIGASEDTNVANSLPLMANTVLKLREQANNTVENPELDILLPSWFRCCLSYLVLESELQQTGKRRLVFLCNQDRLYGETDTEKCIFLSIKWQRDLHKVIKVRSKRNIWEASFSELANSRPHELINLFANNDVWVEGNFQPLA”, for which the “soluble on expression in E. coli” value is recorded as “not soluble”. Consider “MHHHHHHSSGRENLYFQGVWKSYLYQLQQEAPHPRRITCTCEVENRPKYYGREFHGMISREAADQLLIVAEGSYLIRESQRQPGTYTLALRFGSQTRNFRLYYDGKHFVGEKRFESIHDLVTDGLITLYIETKAAEYIAKMTINPIYEHVGYTTLNREPAYKKHMPVLKETHDERDSTGQDGVSEKRLTSLVRRATLKENEQIPKYEKIHNFKVHTFRGPHWCEYCANFMWGLIAQGVKCADCGLNVHKQCSKMVPNDCKPDLKHVKKVYSCDLTTLVKAHTTKRPMVVDMCIREIESRGLNSEGLYRVSGFSDLIEDVKMAFDRDGEKADISVNMYEDINIITGALKLYFRDLPIPLITYDAYPKFIESAKIMDPDEQLETLHEALKLLPPAHCETLRYLMAHLKRVTLHEKENLMNAENLGIVFGPTLMRSPELDAMAALNDIRYQRLVVELLIKNEDILF”, for which the “soluble on expression in E. coli” value is recorded as “soluble”. Take “MAMSNMTYNNVFDHAYEMLKENIRYDDIRDTDDLHDAIHMAADNAVPHYYADIFSVMASEGIDLEFEDSGLMPDTKDVIRILQARIYEQLTIDLWEDAEDLLNEYLEEVEEYEEDEE”: the “soluble on expression in E. coli” value was “soluble”.
